Molecular target: (his)6CfaB, mature CfaB (residues 24–170) with N-terminal hexahistidine tag (enterotoxigenic E. coli (ETEC)) (UniProt E3PPC4)
Assay: pull-down

UniProt E3PPC4, sequence (E3PPC4 24-170): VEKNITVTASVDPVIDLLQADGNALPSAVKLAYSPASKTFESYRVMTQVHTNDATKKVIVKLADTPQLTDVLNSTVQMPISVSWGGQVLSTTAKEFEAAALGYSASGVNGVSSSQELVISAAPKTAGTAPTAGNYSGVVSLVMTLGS

Substance | CfaA/CfaB ratio
CfaA (20–238) K9A (natural protein) | 0.64
CfaA (20–238), wild type, untagged (pETDuet-1-cfaA) (natural protein) | 0.66

— paper PMC4133393
